Laboratory results from paper PMC9263355.

Key:
[1] = target: recombinant human galectin-9N (human); test: fluorescence polarisation; fluorescence anisotropy in solution, by inhibition: fixed galectin (0.2-2.5 µM) with 0.02 µM of its fluorescent probe, in the presence of 0.07-[…] (rh)4-1BB Fc or (rh)IgG1 Fc; average Kd from the points with ≥ 15% inhibition
[2] = target: recombinant human galectin-9C (human); test: as above
[3] = target: recombinant human galectin-8N (human); test: as above
[4] = target: 4-1BB on CD3/CD28-activated human CD4 T cells (human (endogenous in CD4 T cells)) (UniProt Q07011)
4-1BB on CD3/CD28-activated human CD4 T cells (human (endogenous in CD4 T cells)), sequence (Q07011 24-255): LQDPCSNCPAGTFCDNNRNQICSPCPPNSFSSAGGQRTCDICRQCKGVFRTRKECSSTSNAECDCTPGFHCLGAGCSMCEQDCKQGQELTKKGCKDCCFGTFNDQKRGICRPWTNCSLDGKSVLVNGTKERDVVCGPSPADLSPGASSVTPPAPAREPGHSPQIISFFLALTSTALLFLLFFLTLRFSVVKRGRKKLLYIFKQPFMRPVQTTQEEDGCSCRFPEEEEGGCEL

recombinant human (rh)4-1BB Fc chimera protein, sequence (Q07011 24-186, change not shown): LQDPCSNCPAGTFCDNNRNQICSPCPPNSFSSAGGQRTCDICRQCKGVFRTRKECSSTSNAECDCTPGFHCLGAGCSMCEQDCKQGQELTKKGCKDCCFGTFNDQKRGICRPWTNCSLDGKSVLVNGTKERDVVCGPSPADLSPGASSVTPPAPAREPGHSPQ
Gal-3 in normal human plasma, sequence (P17931 whole entry): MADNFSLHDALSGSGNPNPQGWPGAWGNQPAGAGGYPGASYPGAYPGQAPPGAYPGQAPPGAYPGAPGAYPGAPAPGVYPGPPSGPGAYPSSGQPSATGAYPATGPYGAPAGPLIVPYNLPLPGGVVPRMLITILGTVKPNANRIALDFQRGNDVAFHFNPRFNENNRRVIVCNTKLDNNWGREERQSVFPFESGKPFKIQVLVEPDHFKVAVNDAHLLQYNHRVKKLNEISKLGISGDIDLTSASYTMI

| Substance | Kd [1] [nM] | Kd [2] [nM] | Kd [3] [nM] | fold decrease in fraction of 4-1BB+CD4+ T cells that produced TNFα upon 4-1BBL stimulation, after pre-incubation of activated CD4 T-cells with plasma [4] [fold] |
| --- | --- | --- | --- | --- |
| recombinant human (rh)4-1BB Fc chimera protein (from UniProt Q07011 24-186) (Fc fusion) | 1390 | 2240 | 3590 |  |
| Gal-3 in normal human plasma (from UniProt P17931 1-250) (natural protein) |  |  |  | 3.8 |
